Reference: PMC6618058

Tests used:
[1] = target: Biotinylated HLA-A*02:01 with the MART-1(26-35) decapeptide …
[2] = target: HLA-A*02:01 with the MART-1(27-35) nonapeptide …, not tagged

- dH [1]: -14 kcal/mol
- MIP‐1β secretion (ELISA) by CD8+ T cells transduced with the MEL5 TCR in response to titrated … presented by T2 cells; sensitivity against that of DMF4 TCR-transduced T cells [2]: 100 fold
Substance: MEL5 TCR
